Consider one molecule from patent US20110311550A1 (Scripps Research, published 2011).

Assay [1] addresses E1E2 (Env) of HCV isolate H (genotype 1a) on HCVpp (hepatitis C virus, isolate H). Description: cell-based or functional assay.
In assay [2] the target is E1E2 (Env) of HCV isolate OH8 (genotype 1b) on HCVpp (hepatitis C virus, isolate OH8). Kind of assay: cell-based or functional assay.
The target in assay [3] is E1E2 (Env) of HCV isolate UKN1B12.16 (genotype 1b) on HCVpp (hepatitis C virus, isolate UKN1B12.16). Kind of assay: cell-based or functional assay.
In assay [4] the target is E1E2 (Env) of HCV isolate J6 (genotype 2a) on HCVpp (hepatitis C virus, isolate J6, UniProt P26660 192-383; P26660 384-750). Description: cell-based or functional assay.
In assay [5] the target is E1E2 (Env) of HCV isolate UKN2A1.2 (genotype 2a) on HCVpp (hepatitis C virus, isolate UKN2A1.2). Description: cell-based or functional assay.
For assay [6], the target named is E1E2 (Env) of HCV isolate UKN2B1.1 (genotype 2b) on HCVpp (hepatitis C virus, isolate UKN2B1.1). Kind of assay: cell-based or functional assay.
Assay [7] concerns the target E1E2 (Env) of HCV isolate UKN4.21.16 (genotype 4) on HCVpp (hepatitis C virus, isolate UKN4.21.16). Description: cell-based or functional assay.
In assay [8] the target is E1E2 (Env) of HCV isolate UKN5.15.7 (genotype 5) on HCVpp (hepatitis C virus, isolate UKN5.15.7). Kind of assay: cell-based or functional assay.
For assay [9], the target named is T1, E1E2 complex of HCV isolate H77 (genotype 1a), wild type (HCV isolate H77, UniProt P27958 192-383; P27958 384-746). Kind of assay: cell-based or functional assay.
Assay [10] has as its target H77 E1E2 mutant P484A (HCV isolate H77, UniProt P27958 192-383; P27958 384-746). Description: ELISA, alanine mutant E1E2. (An ELISA detects its analyte on a solid surface through an enzyme-linked reagent.)
The target in assay [11] is H77 E1E2 mutant G530A (HCV isolate H77, UniProt P27958 192-383; P27958 384-746). Description: ELISA, alanine mutant E1E2.
The target in assay [12] is T2, vaccinia-expressed E1E2 complex, isolate HCV-1 (genotype 1a) (hepatitis C virus, isolate HCV-1, UniProt P26664 192-383; P26664 384-746). Kind of assay: competition ELISA on HCV-1 E1E2; competitor m1 (AR1A).
Assay [13] has as its target T2, vaccinia-expressed E1E2 complex, …. Description: competition ELISA on HCV-1 E1E2; competitor m5 (AR3B).
Assay [14] shares this target. Kind of assay: competition ELISA on HCV-1 E1E2; competitor m6 (AR3C).
The target is the same in assay [15]. Description: competition ELISA on HCV-1 E1E2; competitor m28 (1/39).
Assay [16] deals with T1, E1E2 complex of HCV isolate H77 …. Kind of assay: competition ELISA on H77 E1E2; competitor m38 (Fab N2).
The target is the same in assay [17]. Description: competition ELISA on H77 E1E2; competitor m39 (Fab N3).
The target is the same in assay [18]. Kind of assay: competition ELISA on H77 E1E2; competitor m40 (Fab N4).
For assay [19] the target is unchanged. Kind of assay: competition ELISA on H77 E1E2; competitor m44 (Fab P2).
Assay [20] shares this target. Kind of assay: competition ELISA on H77 E1E2; competitor m45 (Fab P3).
Assay [21] concerns the target T2, vaccinia-expressed E1E2 complex, …. Kind of assay: competition ELISA on HCV-1 E1E2; competitor m20 (CBH-2).
The target is the same in assay [22]. Kind of assay: competition ELISA on HCV-1 E1E2; competitor m32 (AP320).
Assay [23] concerns the target T1, E1E2 complex of HCV isolate H77 …. Description: competition ELISA on H77 E1E2; competitor m43 (Fab P1a).
Assay [24] deals with T2, vaccinia-expressed E1E2 complex, …. Description: competition ELISA on HCV-1 E1E2; competitor m19 (CBH-4B).

B1: MAb AR2A (antibody, V domains shown)
VH: LEQSGAEMKKPGASLKVSCKTSGYTFDDYGVTWVRQAPGQGLEWMGWISAYSGNTFYARKFQGRVTMTTDPSTRTAYMELRSLRSDDTAVYFCARDRGLAINGVVFPYFGLDVWGQGTTVTVSS
VL: ELTQSPVSLPVTPGEPASISCRSSQSLLHSNGNHYLDWYLQKPGQSPQLLMYLGSNRASGVPDRFSGSGSGTDFTLKISRVEAEDVGVYYCMQGLQTPWTFGQGTKVEIKR
notes: also called IgG1 of Fab G
On to B1, for which the “Neutralizing activity (IC50) on HCVpp” value in [1] is 5 mg/L; in assay [2], over 50 mg/L; in assay [3], over 50 mg/L; in assay [4], over 50 mg/L; in [5], 5 mg/L; in [6], 10 mg/L. The entries for the “Neutralizing activity (IC50) on HCVpp” value in assay [7], in assay [8] and in [9] were 1 mg/L, 10 mg/L and 1 mg/L, respectively. The “binding vs wild-type E1E2” value amounted to 77% in assay [10] and 53% in assay [11]. Further, the “% residual binding” value turned out to be 76% in assay [12]; 92% in [13]; 86% in assay [14]; 90% in assay [15]; 86% in [16]; 69% in assay [17]. For the same molecule, the “% residual binding” value is 74% in assay [18]; 82% in assay [19]; 72% in assay [20]; 93% in assay [21]; 70% in assay [22]; 82% in assay [23]. In addition, in [24], the “% residual binding” value came to 87%.
